Two molecules from article doi:10.1101/2021.12.03.471045 (2021) can be followed below.

Test [1] deals with T1, early pandemic (Wuhan) SARS-CoV-2 RBD (SARS-CoV-2, UniProt P0DTC2). Briefly: SPR. On the technique in general: In SPR one partner is held on a chip, and binding of the other changes the refractive index at the surface.
Test [2] has as its target T1, early pandemic (Wuhan) SARS-CoV-2 RBD. As to the kind of experiment: SPR. This is another data set of the same source.

B1: EY6A mAb (IgG) (antibody, V domains shown)
VH: EVQLVESGGGVVQPGRSLRLSCAASAFTFSSYDMHWVRQAPGKGLEWVAVISYDGSNKYYADSVKGRFTISRDNSKNTLYLQMNSLRAEDTAVYYCAKDGGKLWVYYFDYWGQGTLVTVSS
VL: not shown
In general, koff refers to the rate constant with which the complex falls apart. Consider B1, for which the koff in test [1] stood at 0.0048 s⁻¹.

B2: Beta-55 mAb (IgG) (antibody, V domains shown)
VH: QVQLQESGPGLVKPSETLSLTCTVSGDSISSSRYYWGWIRQPPGKGLEWIGTFYYSGITYYNPSLKSRVTIFVDTSKNQFSLKLSSVTAADTAVYYCARPRPPDYYDNSGALLFDIWGQGTMVTVSS
VL: AIRMTQSPSTLSASVGDRVTIACRASQSISAWLAWYQQKPGKAPKLLIYKASSLESGVPSRFSGSGSGTEFTLTINSLQPDDFATYYCQQYISSSPWTFGQGTKVEIK
As usually defined, the Kd is the constant that tells how readily two partners part at equilibrium. The low end stands for a tighter complex, the high end for a looser complex. Consider B2, for which the Kd in test [2] worked out at 0.177 nM. Also, in test [1], the koff is 0.00018 s⁻¹.
